# From patent US20250368745A1 (published 2025)
# Read-outs that look alike come from different tables or passages of the source.
# T1: human IL-18BP (human, UniProt O95998 31-194)
# T1 construct: UniProt printed as 095998; also called hIL-18BP
# T1 sequence: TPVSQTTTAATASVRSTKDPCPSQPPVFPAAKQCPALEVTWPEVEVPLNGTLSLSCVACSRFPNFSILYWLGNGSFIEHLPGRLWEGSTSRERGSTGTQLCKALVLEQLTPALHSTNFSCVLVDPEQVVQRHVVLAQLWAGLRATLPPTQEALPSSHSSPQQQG
# Columns and labels:
# human IL-18BP [1] = biological target: T1, human IL-18BP; assay: BLI, apparent KD
# human IL-18BP [2] = biological target: T1, human IL-18BP; assay: BLI, apparent KD; remark: listed apart in the source
binder,measurement,setting,value
"SA301a HC-H52A (antibody, name in Kabat numbering, V domains shown, IgG1 kappa) VH: QVQLQESGPGLVKPSQTLSLTCTVSGYSITSDYNSHWIRQPPGKGLEWIGYIAYSGSTNYNPSLKSRVTISRDTSKNQFSLKLSSVTAADTAVYYCARNYGSIYVNYFDYWGQGTLVTVSS VL: EIVLTQSPATLSLSPGERATLSCSASSSVSYMYWYQQKPGQAPRPLIYRTSNLASGIPARFSGSGSGTDFTLTISSLEPEDFAVYYCQQYHSYPTFGGGTKVEIK",Kd,human IL-18BP [1],0.24 nM
"SA301a HC-H52K (antibody, name in Kabat numbering, V domains shown, IgG1 kappa) VH: QVQLQESGPGLVKPSQTLSLTCTVSGYSITSDYNSHWIRQPPGKGLEWIGYIKYSGSTNYNPSLKSRVTISRDTSKNQFSLKLSSVTAADTAVYYCARNYGSIYVNYFDYWGQGTLVTVSS VL: EIVLTQSPATLSLSPGERATLSCSASSSVSYMYWYQQKPGQAPRPLIYRTSNLASGIPARFSGSGSGTDFTLTISSLEPEDFAVYYCQQYHSYPTFGGGTKVEIK",Kd,human IL-18BP [1],0.01 nM
"SA301a HC-H52P (antibody, name in Kabat numbering, V domains shown, IgG1 kappa) VH: QVQLQESGPGLVKPSQTLSLTCTVSGYSITSDYNSHWIRQPPGKGLEWIGYIPYSGSTNYNPSLKSRVTISRDTSKNQFSLKLSSVTAADTAVYYCARNYGSIYVNYFDYWGQGTLVTVSS VL: EIVLTQSPATLSLSPGERATLSCSASSSVSYMYWYQQKPGQAPRPLIYRTSNLASGIPARFSGSGSGTDFTLTISSLEPEDFAVYYCQQYHSYPTFGGGTKVEIK",Kd,human IL-18BP [1],0.01 nM
"SA301a HC-H52T (antibody, name in Kabat numbering, V domains shown, IgG1 kappa) VH: QVQLQESGPGLVKPSQTLSLTCTVSGYSITSDYNSHWIRQPPGKGLEWIGYITYSGSTNYNPSLKSRVTISRDTSKNQFSLKLSSVTAADTAVYYCARNYGSIYVNYFDYWGQGTLVTVSS VL: EIVLTQSPATLSLSPGERATLSCSASSSVSYMYWYQQKPGQAPRPLIYRTSNLASGIPARFSGSGSGTDFTLTISSLEPEDFAVYYCQQYHSYPTFGGGTKVEIK",Kd,human IL-18BP [1],1.92 nM
"SA301a HC-H52Y (antibody, name in Kabat numbering, V domains shown, IgG1 kappa) VH: QVQLQESGPGLVKPSQTLSLTCTVSGYSITSDYNSHWIRQPPGKGLEWIGYIYYSGSTNYNPSLKSRVTISRDTSKNQFSLKLSSVTAADTAVYYCARNYGSIYVNYFDYWGQGTLVTVSS VL: EIVLTQSPATLSLSPGERATLSCSASSSVSYMYWYQQKPGQAPRPLIYRTSNLASGIPARFSGSGSGTDFTLTISSLEPEDFAVYYCQQYHSYPTFGGGTKVEIK",Kd,human IL-18BP [1],0.79 nM
"SA301a HC-S54G (antibody, name in Kabat numbering, V domains shown, IgG1 kappa) VH: QVQLQESGPGLVKPSQTLSLTCTVSGYSITSDYNSHWIRQPPGKGLEWIGYIHYGGSTNYNPSLKSRVTISRDTSKNQFSLKLSSVTAADTAVYYCARNYGSIYVNYFDYWGQGTLVTVSS VL: EIVLTQSPATLSLSPGERATLSCSASSSVSYMYWYQQKPGQAPRPLIYRTSNLASGIPARFSGSGSGTDFTLTISSLEPEDFAVYYCQQYHSYPTFGGGTKVEIK",Kd,human IL-18BP [1],0.33 nM
"SA301a HC-S54L (antibody, name in Kabat numbering, V domains shown, IgG1 kappa) VH: QVQLQESGPGLVKPSQTLSLTCTVSGYSITSDYNSHWIRQPPGKGLEWIGYIHYLGSTNYNPSLKSRVTISRDTSKNQFSLKLSSVTAADTAVYYCARNYGSIYVNYFDYWGQGTLVTVSS VL: EIVLTQSPATLSLSPGERATLSCSASSSVSYMYWYQQKPGQAPRPLIYRTSNLASGIPARFSGSGSGTDFTLTISSLEPEDFAVYYCQQYHSYPTFGGGTKVEIK",Kd,human IL-18BP [1],2.64 nM
"SA301a HC-S54M (antibody, name in Kabat numbering, V domains shown, IgG1 kappa) VH: QVQLQESGPGLVKPSQTLSLTCTVSGYSITSDYNSHWIRQPPGKGLEWIGYIHYMGSTNYNPSLKSRVTISRDTSKNQFSLKLSSVTAADTAVYYCARNYGSIYVNYFDYWGQGTLVTVSS VL: EIVLTQSPATLSLSPGERATLSCSASSSVSYMYWYQQKPGQAPRPLIYRTSNLASGIPARFSGSGSGTDFTLTISSLEPEDFAVYYCQQYHSYPTFGGGTKVEIK",Kd,human IL-18BP [1],1.94 nM
"SA301a HC-S54N (antibody, name in Kabat numbering, V domains shown, IgG1 kappa) VH: QVQLQESGPGLVKPSQTLSLTCTVSGYSITSDYNSHWIRQPPGKGLEWIGYIHYNGSTNYNPSLKSRVTISRDTSKNQFSLKLSSVTAADTAVYYCARNYGSIYVNYFDYWGQGTLVTVSS VL: EIVLTQSPATLSLSPGERATLSCSASSSVSYMYWYQQKPGQAPRPLIYRTSNLASGIPARFSGSGSGTDFTLTISSLEPEDFAVYYCQQYHSYPTFGGGTKVEIK",Kd,human IL-18BP [1],0.36 nM
"SA301a HC-S54P (antibody, name in Kabat numbering, V domains shown, IgG1 kappa) VH: QVQLQESGPGLVKPSQTLSLTCTVSGYSITSDYNSHWIRQPPGKGLEWIGYIHYPGSTNYNPSLKSRVTISRDTSKNQFSLKLSSVTAADTAVYYCARNYGSIYVNYFDYWGQGTLVTVSS VL: EIVLTQSPATLSLSPGERATLSCSASSSVSYMYWYQQKPGQAPRPLIYRTSNLASGIPARFSGSGSGTDFTLTISSLEPEDFAVYYCQQYHSYPTFGGGTKVEIK",Kd,human IL-18BP [1],1.11 nM
"SA301a HC-S54Q (antibody, name in Kabat numbering, V domains shown, IgG1 kappa) VH: QVQLQESGPGLVKPSQTLSLTCTVSGYSITSDYNSHWIRQPPGKGLEWIGYIHYQGSTNYNPSLKSRVTISRDTSKNQFSLKLSSVTAADTAVYYCARNYGSIYVNYFDYWGQGTLVTVSS VL: EIVLTQSPATLSLSPGERATLSCSASSSVSYMYWYQQKPGQAPRPLIYRTSNLASGIPARFSGSGSGTDFTLTISSLEPEDFAVYYCQQYHSYPTFGGGTKVEIK",Kd,human IL-18BP [1],2.31 nM
"SA302a HC-N33bT (antibody, V domains shown) VH: QVQLQESGPGLVKPSQTLSLTCTVSGYSITSDYTAHWIRQPPGKGLEWIGYIHYSGSTNYNPSLKSRVTISRDTSKNQFSLKLSSVTAADTAVYYCARNYGSIYVNYFDYWGQGTLVTVSS VL: EIVLTQSPATLSLSPGERATLSCSASSSVSYMYWYQQKPGQAPRPLIYRTSNLASGIPARFSGSGSGTDFTLTISSLEPEDFAVYYCQQYHSYPTFGGGTKVEIK",Kd,human IL-18BP [2],1.63 nM
"SA302a HC-N33bQ (antibody, V domains shown) VH: QVQLQESGPGLVKPSQTLSLTCTVSGYSITSDYQAHWIRQPPGKGLEWIGYIHYSGSTNYNPSLKSRVTISRDTSKNQFSLKLSSVTAADTAVYYCARNYGSIYVNYFDYWGQGTLVTVSS VL: EIVLTQSPATLSLSPGERATLSCSASSSVSYMYWYQQKPGQAPRPLIYRTSNLASGIPARFSGSGSGTDFTLTISSLEPEDFAVYYCQQYHSYPTFGGGTKVEIK",Kd,human IL-18BP [2],6.01 nM
"SA302a HC-N33bK (antibody, V domains shown) VH: QVQLQESGPGLVKPSQTLSLTCTVSGYSITSDYKAHWIRQPPGKGLEWIGYIHYSGSTNYNPSLKSRVTISRDTSKNQFSLKLSSVTAADTAVYYCARNYGSIYVNYFDYWGQGTLVTVSS VL: EIVLTQSPATLSLSPGERATLSCSASSSVSYMYWYQQKPGQAPRPLIYRTSNLASGIPARFSGSGSGTDFTLTISSLEPEDFAVYYCQQYHSYPTFGGGTKVEIK",Kd,human IL-18BP [2],1.12 nM
"SA302a HC-N33bA (antibody, V domains shown) VH: QVQLQESGPGLVKPSQTLSLTCTVSGYSITSDYAAHWIRQPPGKGLEWIGYIHYSGSTNYNPSLKSRVTISRDTSKNQFSLKLSSVTAADTAVYYCARNYGSIYVNYFDYWGQGTLVTVSS VL: EIVLTQSPATLSLSPGERATLSCSASSSVSYMYWYQQKPGQAPRPLIYRTSNLASGIPARFSGSGSGTDFTLTISSLEPEDFAVYYCQQYHSYPTFGGGTKVEIK",Kd,human IL-18BP [2],5.45 nM
"SA302a HC-N33bP (antibody, V domains shown) VH: QVQLQESGPGLVKPSQTLSLTCTVSGYSITSDYPAHWIRQPPGKGLEWIGYIHYSGSTNYNPSLKSRVTISRDTSKNQFSLKLSSVTAADTAVYYCARNYGSIYVNYFDYWGQGTLVTVSS VL: EIVLTQSPATLSLSPGERATLSCSASSSVSYMYWYQQKPGQAPRPLIYRTSNLASGIPARFSGSGSGTDFTLTISSLEPEDFAVYYCQQYHSYPTFGGGTKVEIK",Kd,human IL-18BP [2],6.05 nM
"SA302a HC-H35N (antibody, V domains shown) VH: QVQLQESGPGLVKPSQTLSLTCTVSGYSITSDYNANWIRQPPGKGLEWIGYIHYSGSTNYNPSLKSRVTISRDTSKNQFSLKLSSVTAADTAVYYCARNYGSIYVNYFDYWGQGTLVTVSS VL: EIVLTQSPATLSLSPGERATLSCSASSSVSYMYWYQQKPGQAPRPLIYRTSNLASGIPARFSGSGSGTDFTLTISSLEPEDFAVYYCQQYHSYPTFGGGTKVEIK",Kd,human IL-18BP [2],3.02 nM
"SA302a HC-H35R (antibody, V domains shown) VH: QVQLQESGPGLVKPSQTLSLTCTVSGYSITSDYNARWIRQPPGKGLEWIGYIHYSGSTNYNPSLKSRVTISRDTSKNQFSLKLSSVTAADTAVYYCARNYGSIYVNYFDYWGQGTLVTVSS VL: EIVLTQSPATLSLSPGERATLSCSASSSVSYMYWYQQKPGQAPRPLIYRTSNLASGIPARFSGSGSGTDFTLTISSLEPEDFAVYYCQQYHSYPTFGGGTKVEIK",Kd,human IL-18BP [2],1.18 nM
"SA302a HC-H35D (antibody, V domains shown) VH: QVQLQESGPGLVKPSQTLSLTCTVSGYSITSDYNADWIRQPPGKGLEWIGYIHYSGSTNYNPSLKSRVTISRDTSKNQFSLKLSSVTAADTAVYYCARNYGSIYVNYFDYWGQGTLVTVSS VL: EIVLTQSPATLSLSPGERATLSCSASSSVSYMYWYQQKPGQAPRPLIYRTSNLASGIPARFSGSGSGTDFTLTISSLEPEDFAVYYCQQYHSYPTFGGGTKVEIK",Kd,human IL-18BP [2],4.23 nM
"SA302a HC-H35L (antibody, V domains shown) VH: QVQLQESGPGLVKPSQTLSLTCTVSGYSITSDYNALWIRQPPGKGLEWIGYIHYSGSTNYNPSLKSRVTISRDTSKNQFSLKLSSVTAADTAVYYCARNYGSIYVNYFDYWGQGTLVTVSS VL: EIVLTQSPATLSLSPGERATLSCSASSSVSYMYWYQQKPGQAPRPLIYRTSNLASGIPARFSGSGSGTDFTLTISSLEPEDFAVYYCQQYHSYPTFGGGTKVEIK",Kd,human IL-18BP [2],1.74 nM
"SA302a HC-H35G (antibody, V domains shown) VH: QVQLQESGPGLVKPSQTLSLTCTVSGYSITSDYNAGWIRQPPGKGLEWIGYIHYSGSTNYNPSLKSRVTISRDTSKNQFSLKLSSVTAADTAVYYCARNYGSIYVNYFDYWGQGTLVTVSS VL: EIVLTQSPATLSLSPGERATLSCSASSSVSYMYWYQQKPGQAPRPLIYRTSNLASGIPARFSGSGSGTDFTLTISSLEPEDFAVYYCQQYHSYPTFGGGTKVEIK",Kd,human IL-18BP [2],2.05 nM
